This note sets out measurements from patent publication US20200247894A1 (Regeneron, published 2020).

Substitutions are numbered along the chain they refer to.

Experiment [1] concerns the target T1, Human IL2Rγ extracellular domain expressed with a C-terminal myc-myc-hexahistidine tag (human).
T1 construct: also called hIL-2Rg-MMH; hIL-2RG-MMH
T1 chain: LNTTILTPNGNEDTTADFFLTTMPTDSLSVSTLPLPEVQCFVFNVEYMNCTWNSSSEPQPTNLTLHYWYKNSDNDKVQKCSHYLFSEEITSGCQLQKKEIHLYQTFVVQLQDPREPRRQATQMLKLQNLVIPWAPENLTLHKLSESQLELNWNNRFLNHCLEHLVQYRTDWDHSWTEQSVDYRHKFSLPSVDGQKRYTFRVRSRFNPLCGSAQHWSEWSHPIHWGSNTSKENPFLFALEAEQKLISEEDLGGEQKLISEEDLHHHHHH
Briefly: SPR Biacore 4000, mAb captured by anti-hFc, HBS-ET, 37C. In outline: (§1)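 KD and dissociative half-life come from rate constants obtained by 1:1 binding-model fits of real-time sensorgrams. Antibodies sit on an anti-human Fc capture surface, with HBS-ET (pH 7.4) as running buffer and an 8-10 minute dissociation phase.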

Experiment [2] deals with T2, Macaca fascicularis IL2Rγ extracellular domain expressed with a C-terminal myc-myc-hexahistidine tag (Macaca fascicularis).
T2 construct: also called mfIL-2Rg-MMH; mfIL-2RG-MMH
T2 chain: T1 chain with T14A, A16T, T22S, H141R, T228S
Briefly: SPR Biacore 4000, mAb captured by anti-hFc, 37C, dissociation in PBS-T pH 6.0. In outline: (§2)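 Dissociation of receptor-MMH from Fc-captured IgG4 antibodies ran 6 minutes in PBS-T; kd was obtained by 1:1 curve fitting.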

The target of experiment [3] is T1, Human IL2Rγ extracellular domain …. Briefly: SPR Biacore 4000, mAb captured by anti-hFc, HBS-ET, 25C. A digest of the protocol:
as §1

Experiment [4] concerns the target T2, Macaca fascicularis IL2Rγ extracellular …. The experiment is described as above. A digest of the protocol:
as §1

Experiment [5] shares this target. Briefly: SPR Biacore 4000, mAb captured by anti-hFc, 37C, dissociation in PBS-T pH 7.4. In outline: as §2
(SPR reads the build-up and loss of mass on a sensor chip optically.)

Experiment [6] deals with T3, human IL-2Rγ endogenously expressed on NK-92 and Jurkat cells (human, UniProt P31785 23-369).
T3 construct: whole, on cells; on cells it stands with the other receptor subunits of the cell line; also called IL-2Rg; CD132
T3 sequence (looked up): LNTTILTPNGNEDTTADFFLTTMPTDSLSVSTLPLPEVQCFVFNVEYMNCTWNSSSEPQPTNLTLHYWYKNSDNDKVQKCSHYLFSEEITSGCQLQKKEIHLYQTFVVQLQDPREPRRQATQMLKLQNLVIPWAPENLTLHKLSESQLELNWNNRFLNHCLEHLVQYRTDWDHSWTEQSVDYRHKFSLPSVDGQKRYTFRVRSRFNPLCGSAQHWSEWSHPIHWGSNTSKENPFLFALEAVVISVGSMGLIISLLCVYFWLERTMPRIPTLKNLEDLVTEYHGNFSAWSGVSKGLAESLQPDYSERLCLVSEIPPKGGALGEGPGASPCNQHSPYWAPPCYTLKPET
Briefly: flow cytometry, 10 ug/ml antibody, NK-92 cells (endogenous human IL-2Rg). How it is done: For flow cytometry analyses, the cells were pre-incubated with mouse IgG at 100 μg/ml for 15 minutes at room temperature (RT) to block the binding of the antibodies to Fc receptors. […] Cells were washed, fixed using BD CytoFix™ (BD biosciences, #554655) and analyzed on an IQue® (Intellicyt®) Flow Cytometer or Accuri Flow cytometer (BD). […] The results were analyzed using ForeCyt® (IntelliCyt®) software to determine the geometric means of fluorescence (MFI) for viable cells. Binding ratios were calculated by normalizing the MFI of the test sample by the MFI of the unstained sample.
A general note: Flow cytometry measures light scatter and fluorescence of single cells or particles in a stream.

Experiment [7] has as its target T4, D1 domain of human IL-2Rγ extracellular domain expressed with a C-terminal myc-myc-hexahistidine tag (human).
T4 construct: also called human IL2Rγ domain 1
T4 chain: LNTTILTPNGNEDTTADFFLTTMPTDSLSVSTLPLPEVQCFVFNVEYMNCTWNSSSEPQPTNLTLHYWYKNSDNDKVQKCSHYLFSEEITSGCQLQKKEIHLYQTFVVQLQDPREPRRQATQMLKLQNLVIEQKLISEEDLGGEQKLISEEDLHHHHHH
Briefly: SPR, mAb captured on anti-hFc, 37 C. The protocol:
(§3) Equilibrium dissociation constants (KD values) for IL-2Rγ binding to purified anti-IL2Rγ monoclonal antibodies were determined using a Biacore 4000 instrument equipped with a real-time surface plasmon resonance biosensor. All binding studies were performed in 10 mM HEPES, 150 mM NaCl, 3 mM EDTA, and 0.05% v/v Surfactant Tween-20, pH 7.4 (HBS-ET) running buffer at 25° C. and 37° C. The Biacore sensor surface was first derivatized by amine coupling with a monoclonal mouse anti-human Fc antibody (GE, # BR-1008-39) to capture anti-IL2Rγ monoclonal antibodies.
(§4) The dissociation of monoclonal antibody bound IL2Rγ reagents were monitored for 8-10 minutes in HBS-ET running buffer. Kinetic association (kₐ) and dissociation (kd) rate constants were determined by fitting the real-time sensorgrams to a 1:1 binding model using Scrubber 2.0c curve fitting software. Binding dissociation equilibrium constants (KD) and dissociative half-lives (t_{1/2}) were calculated from the kinetic rate constants as: […]

For experiment [8], the target named is T5, human IL2Rγ (endogenously expressed on cells) (human, UniProt P31785 23-369).
T5 sequence (looked up): T3 sequence (looked up)
Briefly: cell-based or functional assay.

For experiment [9], the target named is T4, D1 domain of human IL-2Rγ extracellular …. Briefly: SPR, mAb captured on anti-hFc, 25 C. How it is done:
as §3, §4

B1: H4H12900P (antibody, human IgG4 S228P, kappa, V domains shown)
VH: QVQLVESGGGLVKPGGSLRLSCEASGFTFNDFYMTWIRQAPGKGLEWIAYISKSGDKMRYADSVKGRFSTSRDNAKNSLSLQMNSLRAEDTAVYYCARFYGDIWGQGTLVTVSS
VL: DIQLTQSPSFLSASVGDRVTITCWASQDISSFLVWYQQKPGKAPNLLIYAASALQSGVPSRFSGSGSGTEFTLTISSLQPEDFASYYCEQLNNYPWTFGQGTKVEIKR
notes: anti-IL2Rγ monoclonal antibody expressed with human IgG4 Fc
The Kd is a measure of binding affinity in units of concentration. A lower Kd goes with higher affinity. By koff is commonly meant the first-order rate constant of dissociation. For orientation: kon means a measure of how fast the partners come together. Higher therefore signals faster complex formation. With B1, in experiment [1], the “100 nM Ag Bound” value came to 43 RU, the dissociation constant (Kd) is 3.66 nM, the off-rate constant (koff) came to 0.00184 s⁻¹ and the kon came to 503000 M⁻¹ s⁻¹. Besides, the t1/2 in [1] came to 6 min. In [2], the “100 nM Ag Bound (RU)” value worked out at 130 RU, the koff was found to be 0.00277 s⁻¹ and the t1/2 amounted to 4 min. In [3], the “100 nM Ag Bound” value is 79 RU, the Kd came to 1.29 nM, the koff amounted to 0.000379 s⁻¹ and the on-rate constant (kon) came out at 293000 M⁻¹ s⁻¹. In experiment [3], this molecule displayed a t1/2 of 30 min. Also, in [4], the “100 nM Ag Bound” value amounted to 71 RU, the Kd stood at 1.44 nM, the koff turned out to be 0.000335 s⁻¹ and the association rate constant (kon) was determined as 232000 M⁻¹ s⁻¹. Moreover, the t1/2 in experiment [4] was 34 min. In experiment [5], the “100 nM Ag Bound (RU)” value stood at 166 RU, the dissociation rate constant (koff) is 0.000623 s⁻¹ and the t1/2 was 19 min.

B2: H4H13544P2 (antibody, human IgG4 S228P, kappa, V domains shown)
VH: QLQLQESGPGLVKPSETLSLTCTVSGGSISIKNYYWGWIRQPPGKGLEWIGSIYYSGTTYYNPSLKSRVTISVDTSKNQFSLKLSSVTAADTAVYHCARHGYSYGHGWFDPWGQGTLVTVSS
VL: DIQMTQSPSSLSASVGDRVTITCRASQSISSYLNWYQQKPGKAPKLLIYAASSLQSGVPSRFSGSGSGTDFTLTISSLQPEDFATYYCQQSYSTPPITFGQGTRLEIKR
notes: fully human anti-IL2Rg antibody, human IgG4
Regarding B2, in [6], the “Binding Ratio (Sample over unstained MFIs)” value (“Binding Ratio” below) is 24 and the “Raw MFI” value is 4650 MFI.

B3: H4H12908P (antibody, human IgG4 S228P, kappa, V domains shown)
VH: EVQLVESGGRLVQPGGSLRLSCEASGFTFSNYGMTWVRQAPGKGLEWVSVISGSDNRKYYAESVKGRFTISRDNSKNTLYLQMNSLRAEDTAVYYCAKLGYSRSSKDFYYGMDVWGQGTTVTVSS
VL: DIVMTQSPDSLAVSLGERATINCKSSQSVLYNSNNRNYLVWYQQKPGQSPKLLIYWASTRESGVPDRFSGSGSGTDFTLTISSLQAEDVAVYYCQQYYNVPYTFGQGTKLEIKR
notes: as for B1
As for B3, in experiment [1], the “100 nM Ag Bound” value was determined as 16 RU, binding was characterised by a dissociation constant (Kd) of 29.2 nM, the dissociation rate constant (koff) stood at 0.00141 s⁻¹ and the kon is 48300 M⁻¹ s⁻¹. Further, in experiment [1], the t1/2 was 8 min. Further, in experiment [2], the “100 nM Ag Bound (RU)” value was 52 RU, the koff came out at 0.00131 s⁻¹ and the t1/2 amounted to 9 min. In experiment [3], the “100 nM Ag Bound” value was determined as 19 RU, binding was characterised by a dissociation constant (Kd) of 8.61 nM, the off-rate (koff) came out at 0.000285 s⁻¹ and the kon stood at 33100 M⁻¹ s⁻¹. Also, the t1/2 in experiment [3] worked out at 41 min. In [4], the “100 nM Ag Bound” value was 14 RU, binding was put at a Kd of 7.37 nM, the off-rate (koff) worked out at 0.000237 s⁻¹ and the kon amounted to 32200 M⁻¹ s⁻¹. The same molecule gave a t1/2 in [4] of 49 min. Also, in [5], the “100 nM Ag Bound (RU)” value was 55 RU, the off-rate (koff) is 0.000514 s⁻¹ and the t1/2 came to 22 min.

B4: H4H13541P (antibody, human IgG4 S228P, kappa, V domains shown)
VH: EVQLVESGGGVVRPGGSLRLSCAASGFIFDDYDMSWVRQPPGRGLEWVSGIDWFGGTRGYADSMKGRFTISRDNAKNSLYLQMNSLRVEDTAFYYCARGGAIVGAVTPFDYWGQGTLVTVSS
VL: DIQMTQSPSSLSASVGNRVTLSCRASQSINTYLSWYQQRPGKAPKLLIYAASSLQSGVPSRFSGSGAGTDFTLTISSLQPEDFATYYCQQSYSAPLTFGGGTKVEIKR
notes: as for B2
B4: in experiment [6], the “Binding Ratio” value came out at 37 and the “Raw MFI” value was determined as 7050 MFI.

B5: H4H13538P (antibody, human IgG4 S228P, kappa, V domains shown)
VH: EVQLVESGGGLVQPGGSLGLSCAASGFTFSNYAMSWVRQAPGKGLEWVSAVSGGGGGTYYADSVKGRFTISRDNSKNTVLLQMNSLRAEDTAVYYCARGRTGGLDYWGPGTLVTVSS
VL: DVVMTQSPLSLPVIFGQPASISCRSSQSLVDSDGNTYLNWLQQRPGQSPRRLIYEVSNRDSGVPDRFSGSGSGTDFTLTISRVEAEDVGIYYCMQGTRWPPTFGGGTKVEIKR
notes: as for B2
For B5, in experiment [6], the “Binding Ratio” value was 1 and the “Raw MFI” value came out at 235 MFI.

B6: H4H13545P2 (antibody, human IgG4 S228P, kappa, V domains shown)
VH: QVQLQQSGPGLVKPSQTLSLTCDISGDSVSSNIATWNWIRQSPSRGLEWLGRTYYRSKWYKDYAVSVKSRITINPDTSKNQFSLQVNSVTPEDTAVYYCARMTGPRYYFEYWGQGTLVTVSS
VL: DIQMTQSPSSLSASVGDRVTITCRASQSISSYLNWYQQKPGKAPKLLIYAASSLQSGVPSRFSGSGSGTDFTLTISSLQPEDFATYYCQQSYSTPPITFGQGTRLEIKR
notes: as for B2
Consider B6, for which, in experiment [6], the “Binding Ratio” value was determined as 3 and the “Raw MFI” value stood at 592 MFI.

B7: H4H12857P (antibody, human IgG4 S228P, kappa, V domains shown)
VH: EVQLVESGGGVVRPGGSLRLSCAASGFTFDDFDMSWVRQGPGKGLEWVSGINWHGSSTGYADSVKGRFTISRDNAKNSLYLQMSSLRAEDTALYHCVRGGTIVGATTPLDYWGQGTLVTVSS
VL: DIQMTQSPSSLSASVGDRVTMTCRASRTISSYLSWYQQKSGKVPNLLIFGASSLQSGVPSRFSASGSGTDFTLIISSLQPEDFATYYCQQSYSSPLTFGGGTKVEIKR
notes: human IgG4; also called REGN9432
As to B7, in [7], the “100 nM Ag Bound” value worked out at 1 RU and the binding result was “no binding (tested: 100 nM)”. In [8], the “IC50; IL-2 30 pM; NK92/hIL7R/STAT3-luc” value was > 1e-07 M, the “IC50; IL-4 250 pM; Ramos.2G6.4C10/STAT3-luc” value was 3.8e-08 M, the “IC50; IL-7 50 pM; NK92/hIL7R/STAT3-luc” value is 1.6e-08 M and the “IC50; IL-9 20 pM; NK92/hIL7R/STAT3-luc” value was > 1e-07 M. Besides, in experiment [8], the “IC50; IL-15 60 pM; NK92/hIL7R/STAT3-luc” value is > 1e-07 M, the “Max Inhibition (%); IL-2 30 pM; NK92/hIL7R/STAT3-luc” value was determined as 44%, the “Max Inhibition (%); IL-4 250 pM; Ramos.2G6.4C10/STAT3-luc” value was 96% and the “Max Inhibition (%); IL-7 50 pM; NK92/hIL7R/STAT3-luc” value was 94%. Also, in experiment [8], the “Max Inhibition (%); IL-9 20 pM; NK92/hIL7R/STAT3-luc” value was determined as 83% and the “Max Inhibition (%); IL-15 60 pM; NK92/hIL7R/STAT3-luc” value turned out to be 78%. The “100 nM Ag Bound” value in [9] was determined as 0 RU.
